Source: PMC8482623 (Nature structural & molecular biology, 2020)

Target: the molecule itself
Assay: crystal structure

B1: truncated mouse Bcs1 lacking the TM and Bcs1-specific domains (ΔNmBcs1, residues 151-418) (domain or fragment)
chain: not shown
  stoichiometry N: 7
